Tests used:
[1] = target: Human bufavirus 1 (BuV1) VP2, assembled as virus-like particles (human bufavirus 1); assay: cryo-EM structure; purified BuV1 VP2 VLPs dialyzed to pH 7.4 in universal buffer (20 mM HEPES, 20 mM MES, 20 mM sodium acetate, 150 mM NaCl); icosahedral reconstruction
[2] = target: Human bufavirus 1 (BuV1) VP2, assembled as virus-like particles (human bufavirus 1); assay: cryo-EM structure; purified BuV1 VP2 VLPs co-incubated with 6SLN (or 3SLN) glycan in 10-fold molar excess of the potential binding sites; icosahedral reconstruction, 60-mer model
[3] = target: Human bufavirus 1 (BuV1) VP2, assembled as virus-like particles (human bufavirus 1); assay: cryo-EM structure; purified BuV1 VP2 VLPs dialyzed to pH 2.6 in 50 mM glycine HCl, 150 mM NaCl; icosahedral reconstruction; full and half (broken) capsids seen in micrographs
[4] = target: Human bufavirus 1 (BuV1) VP2, assembled as virus-like particles (human bufavirus 1); assay: cryo-EM structure; purified BuV1 VP2 VLPs dialyzed to pH 4.0 in universal buffer (20 mM HEPES, 20 mM MES, 20 mM sodium acetate, 150 mM NaCl); icosahedral reconstruction

Measured: stoichiometry N

Human bufavirus 1 (BuV1) VP2, assembled as virus-like particles (natural protein)
60: all assays above
